Assay results from paper PMC2813881, “The Mrs1 Splicing Factor Binds the bI3 Group I Intron at Each of Two Tetraloop-Receptor Motifs”.

What was measured:
[1] = target: T1, Mrs1 (yeast, UniProt P07266 1-363); experiment: filter binding; conditions: RNA folded in its own buffer (composition not given), 30 min at 37 C with Mrs1, SL and B5 at 8 mM MgCl2
T1 sequence: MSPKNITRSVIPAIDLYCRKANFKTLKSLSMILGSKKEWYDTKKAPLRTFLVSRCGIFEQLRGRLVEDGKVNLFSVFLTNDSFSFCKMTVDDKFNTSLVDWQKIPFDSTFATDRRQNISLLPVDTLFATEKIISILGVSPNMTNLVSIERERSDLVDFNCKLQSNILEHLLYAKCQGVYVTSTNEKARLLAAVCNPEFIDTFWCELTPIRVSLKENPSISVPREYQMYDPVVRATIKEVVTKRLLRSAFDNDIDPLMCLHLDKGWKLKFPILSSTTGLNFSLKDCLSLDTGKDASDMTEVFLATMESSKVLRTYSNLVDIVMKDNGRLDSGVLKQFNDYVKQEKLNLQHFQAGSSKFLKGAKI

[2] = target: T1, Mrs1; experiment: filter binding; 8 mM MgCl2; Hill ~1.5; Filter partitioning (nitrocellulose/Hybond), RNA folded in its own buffer (composition not given), 30 min at 37 C with Mrs1; SL and B5 at 8 mM MgCl2; RNA ~0.5 nM (large) or ~0.1 nM (SL, B5); conditions: protein: recombinant, chain copies: 2, label: internal 32P

bI3 group I intron RNA
K half ([1]; Hill 2.2, Filter partitioning (nitrocellulose/Hybond)): 9.7 nM

RNase P specificity domain RNA
K half ([1]; Hill 2.0, Filter partitioning (nitrocellulose/Hybond)): 230 nM

Azoarcus group I intron RNA
K half ([1]; Hill 1.8, Filter partitioning (nitrocellulose/Hybond)): 3 nM

B1: SL RNA (structured_RNA)
RNA: GGCUGACGAAGCGGUGCAGUGCUGUUUCAGCACUGCACCGCUUCGUCAGCC
apparent K (half saturation) ([2]; hairpin, 24 bp): 1300 nM

B2: B5 RNA (structured_RNA)
RNA: GGCUGACGAAGCGGUGCAGUGCUGUUUCAGCACUGCACCGAAAAACUUCGUCAGCC
apparent K (half saturation) ([2]; hairpin with 5 nt bulge): ~500 nM
